From article PMC7073468, “Small RNA‐binding protein RapZ mediates cell envelope precursor sensing and signaling in Escherichia coli” (The EMBO Journal, 2020)

T1: Strep-RapZ (N-terminally Strep-tagged RapZ) (Escherichia coli, UniProt P0A894 1-284)
T1 construct: it is not measured here; also called YhbJ; source: purified recombinant protein (procedure in the Appendix Supplementary Methods); not shown: Strep, N-terminal, kept
T1 sequence (looked up): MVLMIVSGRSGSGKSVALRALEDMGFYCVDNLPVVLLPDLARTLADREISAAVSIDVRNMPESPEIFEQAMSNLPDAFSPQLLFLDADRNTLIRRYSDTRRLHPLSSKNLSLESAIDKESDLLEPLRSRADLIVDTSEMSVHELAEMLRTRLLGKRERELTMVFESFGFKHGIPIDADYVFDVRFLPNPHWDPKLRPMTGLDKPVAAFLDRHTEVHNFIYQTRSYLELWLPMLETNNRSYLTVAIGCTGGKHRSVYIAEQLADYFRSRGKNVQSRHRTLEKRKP


What was measured:
RapZ = RapZ (Escherichia coli, UniProt P0A894); experiment: SPR (Biacore, single-cycle kinetics); also co-purification detected by HILIC-MS/MS; format: binding
[1] = biological target: T1, Strep-RapZ (N-terminally Strep-tagged …); experiment: SPR; Biacore T200, 25°C; Strep-RapZ (200–400 RU) captured on a CM5 chip coated with Strep-Tactin XT; QseE-His10 or QseF-His10 injected at 10 nM, 50 nM, 2 × 100 nM, 250 nM, 500 nM and 1,000 nM, multicycle; HBS-EP buffer (10 mM HEPES pH 7.4, 150 mM NaCl, 3 mM EDTA, 0.005% P20); overall affinities; settings: both partners purified

| Kd [1] | koff [1] | kon [1] | Molecule | Kd (RapZ) |
| --- | --- | --- | --- | --- |
| – | – | – | N[C@H]1C(O)O[C@H](COP(=O)(O)O)[C@@H](O)[C@@H]1O (stereo partly shown) [GlcN6P] | 0.186 µM |
| 12 µM | 0.054 s⁻¹ | 4500 M⁻¹ s⁻¹ | QseE’-His10 (soluble cytoplasmic C-terminal part of kinase QseE, aa 196–475, with the HAMP and transmitter domains) (domain or fragment, Escherichia coli, UniProt P52101 196-475, looked up, Histidine kinase QseE (a.k.a. GlrK, YfhK) of Escherichia coli, cytoplasmic part aa 196-475 (HAMP and transmitter domains); also called His10-tagged QseE’; GlrK; source: purified recombinant protein (procedure in the Appendix Supplementary Methods)) MIIGPVKNIERMINRLGEGRSLGNSVSFSGPSELRSVGQRILWLSERLSWLESQRHQFLRHLSHELKTPLASMREGTELLADQVVGPLTPEQKEVVSILDSSSRNLQKLIEQLLDYNRKQADSAVELENVELAPLVETVVSAHSLPARAKMMHTDVDLKATACLAEPMLLMSVLDNLYSNAVHYGAESGNICLRSSLHGARVYIDVINTGTPIPQEERAMIFEPFFQGSHQRKGAVKGSGLGLSIARDCIRRMQGELYLVDESGQDVCFRIELPSSKNTK | – |
